According to patent publication US20260008852A1 (CRYSTAL BIOSCIENCE, published 2026):
Residue numbers refer to the chain shown, from its start.

T1: His-tagged human B7-H3 (human, UniProt Q5ZPR3-2 29-245, limits assumed)
T1 construct: Bought His-tagged protein coated on the ELISA plate; also called hu B7-H3; CD276
T1 sequence (looked up): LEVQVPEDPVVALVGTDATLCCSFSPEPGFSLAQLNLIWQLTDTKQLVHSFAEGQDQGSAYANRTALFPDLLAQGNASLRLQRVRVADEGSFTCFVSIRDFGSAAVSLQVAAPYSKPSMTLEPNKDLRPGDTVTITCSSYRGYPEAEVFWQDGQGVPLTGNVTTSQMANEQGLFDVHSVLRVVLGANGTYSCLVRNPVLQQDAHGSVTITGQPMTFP

T2: His-tagged mouse B7-H3 (mouse, UniProt Q8VE98 29-244, limits assumed)
T2 construct: Bought His-tagged protein coated on the ELISA plate; also called mu B7-H3; murine B7-H3
T2 sequence (looked up): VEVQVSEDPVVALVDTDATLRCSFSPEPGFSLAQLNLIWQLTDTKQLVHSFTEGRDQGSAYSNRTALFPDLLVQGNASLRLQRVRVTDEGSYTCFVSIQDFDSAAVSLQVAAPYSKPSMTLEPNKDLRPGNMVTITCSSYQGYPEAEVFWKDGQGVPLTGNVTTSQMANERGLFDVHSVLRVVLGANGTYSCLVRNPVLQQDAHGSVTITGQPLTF

T3: His-tagged cynomolgus monkey B7-H3 (cynomolgus monkey)
T3 chain: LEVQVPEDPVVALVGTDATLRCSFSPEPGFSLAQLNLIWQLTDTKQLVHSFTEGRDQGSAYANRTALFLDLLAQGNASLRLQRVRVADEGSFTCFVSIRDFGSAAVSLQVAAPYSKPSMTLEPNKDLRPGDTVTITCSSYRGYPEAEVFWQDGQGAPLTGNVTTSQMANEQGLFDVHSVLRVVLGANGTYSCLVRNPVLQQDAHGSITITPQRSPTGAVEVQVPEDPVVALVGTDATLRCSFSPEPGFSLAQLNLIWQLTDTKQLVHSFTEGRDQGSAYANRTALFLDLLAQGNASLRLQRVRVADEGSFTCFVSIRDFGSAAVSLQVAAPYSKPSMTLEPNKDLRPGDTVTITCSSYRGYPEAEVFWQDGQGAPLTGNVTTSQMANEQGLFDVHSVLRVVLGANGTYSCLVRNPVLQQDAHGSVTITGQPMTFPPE

T4: B7-H3 on B7-H3-expressing CHO cells (Genescript) (UniProt Q5ZPR3 29-534, limits assumed)
T4 construct: whole, on cells; also called CHO-K1/B7-H3; MFI B7-H3
T4 sequence (looked up): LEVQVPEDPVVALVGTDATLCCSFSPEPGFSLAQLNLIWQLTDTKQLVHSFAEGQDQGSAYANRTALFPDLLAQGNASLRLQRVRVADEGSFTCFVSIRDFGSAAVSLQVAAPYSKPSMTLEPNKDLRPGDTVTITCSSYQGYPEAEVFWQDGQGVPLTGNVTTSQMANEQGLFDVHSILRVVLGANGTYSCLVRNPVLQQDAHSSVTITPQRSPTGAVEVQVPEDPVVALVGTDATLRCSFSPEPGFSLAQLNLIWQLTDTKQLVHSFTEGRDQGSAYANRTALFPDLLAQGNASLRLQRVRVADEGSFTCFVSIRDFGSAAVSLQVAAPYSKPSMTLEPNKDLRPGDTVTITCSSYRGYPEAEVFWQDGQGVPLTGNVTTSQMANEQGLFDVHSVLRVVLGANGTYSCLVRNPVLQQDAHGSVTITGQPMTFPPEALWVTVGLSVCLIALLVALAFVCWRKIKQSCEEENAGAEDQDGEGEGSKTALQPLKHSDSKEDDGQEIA

B1: 40511p1.2.A12 (scFv, V domains shown)
VH: DVQLVESGGGVVRPGESLRLSCAASGFTFSSYAESWVRQAPGEGLEWVSIISGSGGNTFYADSVKGRFTISRDNSKNTLYLQMNSLRAEDTAVYYCARFAYGFFDYWGLGTLVTVSS
VL: EIVLTQSPGTLSVSPGERATLSCRASQTVGSKLAWYQQKPGQPPSLLIYDASTRATGIPDRFSGSGSGTDFTLTISSLQSEDFAVYYCQQYRNWPPLTFGGGTKVEIK
notes: Tested as scFv-Fc (Expi293 supernatant); also called 40511p1.2.Al2
B2: 40579p1.C2 (scFv, V domains shown)
VH: EVQLLESGGDLVQPGGSLRLSCAASGFNFSSYWMSWVRQAPGKGLEWVSGISISYGGNAYYADSVKGRFTVSRDNSKNTLYLQMNSLRAEDTAVYYCGRDRSPYQYRSMDVWGQGTTVTVSS
VL: B1 VL with G9A, L21F, V29I, S31N, P43A, S45R, Y49F, D50S, G57D, R92N
notes: Tested as scFv-Fc (Expi293 supernatant)
B3: 40579p1.B8 (scFv, V domains shown)
VH: EVQLLESGGGLVQPGGSLRLSCAASGFTFSDYYMSWVRQAPGKGLEWVSGISMSSTIYYADSVKGRFTISRDNSKNTLYLQMNSLRAEDTAVYYCARHRSPYQYRSMDVWGQGTTVTVSS
VL: B1 VL with V13L, T28S, G30N, T53R, D70E, R92N
notes: as for B2
B4: 40511p1.2.A4 (scFv, V domains shown)
VH: B1 VH
VL: B1 VL with P43A, S45R, G57D
notes: as for B2
B5: 40511p1.1.G1 (scFv, V domains shown)
VH: B1 VH
VL: B1 VL with R18G
notes: as for B2
B6: 40511p1.1.D8 (scFv, V domains shown)
VH: DVQLVESGGGVVRPGESLRLSCAASGFTFSSYAMSWVRQAPGEGLEWVSSISGSGGSTLYADSVKGRFTISRDSSNNSLYLQMNSLRAEDTAVYYCAKARNNFFDYWGLGTLVTVSS
VL: EIVLTQSPGTLTLSPGERATLSCRASRSILTSLAWYQQRPGQAPRLLIYGANSRATGIPDRFSGSGSGTEFTLTISSLQSEDFAVYYCQQYYDWLTITFGGGTKVEIK
notes: as for B2
B7: 40511p1.2.B5 (scFv, V domains shown)
VH: B6 VH
VL: B6 VL with A43T
notes: as for B2
B8: 40511p1.1.H10 (scFv, V domains shown)
VH: DVQLVESGGGVVRPGESLRLSCAASGFTFSNYAMNWVRQAPGEGLEWVSRINYKGYNITYYADSVKGRFTISRDNSKNTLYLQMNSLRAEDTAVYYCAKSGSNSNNFFDYWGLGTLVTVSS
VL: EIVLTQSPGNLSLSPGERATLSCRASQSVGSQLGWYQQKPGQAPRLLIYGASTRATGIPDRFSGSGSGTEFALTISSLQSEDFAVYYCQQYYDWPPLTFGGGTKVEIK
notes: as for B2
B9: 40511p1.1.H5 (scFv, V domains shown)
VH: B8 VH
VL: EIVLTQSPGTLSLSPGERATLSCRASQSIRSDLAWYQQKPGQAPRLLIYGAASRATGIPARFSGSGSGTEFTLTISSLQSGDFAVYYCQQYNSWPPLTFGGGTKVEIK
notes: as for B2
B10: 40511p1.2.G10 (scFv, V domains shown)
VH: B8 VH
VL: B1 VL with V13L, P43A, S45R, D50G, G57D, D70E, R92I, T98S
notes: as for B2
B11: 40633p1.2.D11 (scFv, V domains shown)
VH: EVQLESGGGLVQPGGSLRLSCAASGFTVSYYGMSWVRQAPGKGLEWVSAIKQDGSEKYYADSVKGRFTISRDNSKNTLYLQMNSLRAEDTAVYYCARHWNDYSNAMNVWGQGTTVTVSS
VL: QSVLTQPPSASGTPGQRVTISCSGSTSNIAIDFVNWYQQLPGTAPKLLIYTIDQRPSGVPDRFSGSKSGTSASLAISGLQSEDEAVYYCASWDASLNGWVFGRGTKLTVL
notes: as for B2
B12: 40633p1.2.D1 (scFv, V domains shown)
VH: EVQLLESGGGLVQPGGSLRLSCAASGFTFDVYGMSWVRQAPGKGLEWVSAINWNGGSTYYADSVKGRFTISRDNSENTLYLQMNSLRAEDTAVYYCAKEKWKHFIYYGMDVWGQGTTVTVSS
VL: QSVLTQPASASGTPGQTVSISCSGSSSNIDSNTANWYQQLPGTAPKLLIYSNNQRPSGVPDRFSGSKSDTSASLAISGLQSEDEGDYYCSAWDDNLNGWLFGGGTKLTVL
notes: as for B2
B13: 40633p1.2.E5 (scFv, V domains shown)
VH: B12 VH with V31G, N52S, W53G, G55S, T58I, E76K, V93A
VL: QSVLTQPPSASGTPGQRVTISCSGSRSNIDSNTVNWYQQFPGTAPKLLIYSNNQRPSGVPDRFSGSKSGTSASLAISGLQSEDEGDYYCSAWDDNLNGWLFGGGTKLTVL
notes: as for B2
B14: 40511p1.1.G3 (scFv, V domains shown)
VH: DVQLVESGGGVVRPGESLTLSCAASGFTINSYAVSWVRQAPGEGLEWVSGISGSGVRYYADSVKGRFTISRDDSNNTLYLQMNSLRAEDTAVYYCARSNKVTWNNFFDYWGLGTLVTVSS
VL: EVVLTQSPGTLTLSPGERATLSCRASRSILTSLAWYQQKPGQAPRLLIYNTVTRATGIPARFSGSGSGTEFTLTINSLQSEDFAVYYCQQYYDWPPLTFGGGTKVEIK
notes: as for B2

Biological target: T1, His-tagged human B7-H3
Test: ELISA OD450 on hu B7-H3 over OD450 on mu B7-H3

| Binder | hu:mu ratio |
| --- | --- |
| B1 | 1.25 |
| B2 | 1.16 |
| B3 | 1.12 |
| B4 | 1.33 |
| B5 | 1.32 |
| B6 | 2.39 |
| B7 | 2.78 |
| B8 | 4.64 |
| B9 | 2.25 |
| B10 | 1.37 |
| B11 | 1.49 |
| B12 | 1.08 |
| B13 | 1.12 |
| B14 | 1.24 |

Biological target: T1, His-tagged human B7-H3
Test: ELISA, coated His-tagged antigen, scFv-Fc 1 ug/ml

| Binder | ELISA OD450 @ 1 ug/ml [OD450] |
| --- | --- |
| B1 | 2.13 |
| B2 | 2.12 |
| B3 | 2.21 |
| B4 | 2.06 |
| B5 | 2.2 |
| B6 | 2.13 |
| B7 | 2.14 |
| B8 | 0.641 |
| B9 | 1.71 |
| B10 | 1.98 |
| B11 | 1.53 |
| B12 | 1.49 |
| B13 | 2.15 |
| B14 | 2.13 |

Biological target: T2, His-tagged mouse B7-H3
Test: ELISA, coated His-tagged antigen, scFv-Fc 1 ug/ml

| Binder | ELISA OD450 @ 1 ug/ml [OD450] |
| --- | --- |
| B1 | 1.7 |
| B2 | 1.82 |
| B3 | 1.98 |
| B4 | 1.55 |
| B5 | 1.67 |
| B6 | 0.891 |
| B7 | 0.771 |
| B8 | 0.138 |
| B9 | 0.758 |
| B10 | 1.45 |
| B11 | 1.03 |
| B12 | 1.38 |
| B13 | 1.92 |
| B14 | 1.71 |

Biological target: T3, His-tagged cynomolgus monkey B7-H3
Test: ELISA, coated His-tagged antigen, scFv-Fc 1 ug/ml

| Binder | ELISA OD450 @ 1 ug/ml [OD450] |
| --- | --- |
| B1 | 2.34 |
| B2 | 2.18 |
| B3 | 2.08 |
| B4 | 2.3 |
| B5 | 2.28 |
| B6 | 2.02 |
| B7 | 2.12 |
| B8 | 2.03 |
| B9 | 2.22 |
| B10 | 2.37 |
| B11 | 1.95 |
| B12 | 1.94 |
| B13 | 2.08 |
| B14 | 1.97 |

Biological target: T4, B7-H3 on B7-H3-expressing CHO cells …
Test: flow cytometry, B7-H3-expressing CHO cells, 10 ug/ml
Method in brief: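 Antibodies at 10 μg/ml in PBS/1% BSA/0.01% NaN3 incubated 60 min on ice with ~1.5e5 cells; parental CHO cells as counterscreen. After washing, read by flow cytometry; values are mean fluorescent intensities (MFI).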

| Binder | MFI @ 10 ug/ml [MFI] |
| --- | --- |
| B1 | 77200 |
| B2 | 75400 |
| B3 | 85500 |
| B4 | 82700 |
| B5 | 74500 |
| B6 | 79200 |
| B7 | 67900 |
| B8 | 22100 |
| B9 | 62200 |
| B10 | 78500 |
| B11 | 63200 |
| B12 | 14100 |
| B13 | 86600 |
| B14 | 89100 |
